Consider one substance from patent publication US7094599.

This assay addresses MHC class II antigen on the Raji B cell line. The assay can be described thus: cell-based or functional assay.

Substance CD4:ζ (receptor) showed a percent cytolysis of Raji (MHC class II+) cells by CTL expressing CD4:ζ of 5%.
